Measured values from the supplement of paper PMC10567573.

B1: PKD2L1 (parent)
chain: TLARCAKDILGFAVMFFIVFFAYA
B2: TRIM43 (parent)
chain: NNSWIRKNSTMVNSEDIFLLLCLK

Variants of: B1
Assay: protein stability index of a GFP-peptide fusion (GPS, HEK-293T) (PSI 1-6); higher = more stable
Details: c terminus: a fixed tail appended
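Further: lentivirally expressed fusions sorted by FACS into six bins by GFP to DsRed ratio, PSI derived from sequencing read proportions per bin multiplied by bin number.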

Variant	protein stability index
V19Y	2.5
V19T	2.69
V19R	2.36
V19I	2.9
V19M	2.58
V19L	3.88
V19W	3
V19C	2.32
V19N	2.39
V19E	2.11
V19A	2.61
V19D	3.22
V19H	3.19
V19K	2.34
V19F	2.13
V19P	2.99
V19S	2.36
V19Q	3.48
V19G	2.34
F20Y	2.46
F20K	2.48
F20S	2.46
F20D	1.83
F20Q	3.46
F20W	1.56
F20T	1.92

Variant	protein stability index
F20G	2.03
F20P	3.48
F20R	2.42
F20E	2.77
F20C	2.57
F20V	3.23
F20A	1.99
F20I	2.7
F20H	2.07
I18D	3.03
I18M	1.49
I18R	2.18
I18N	1.6
I18G	2.09
I18H	1.92
I18T	1.74
I18C	2.29
I18Q	1.54
I18K	1.71
I18Y	3.2
I18S	1.72
I18W	3.5
I18A	2.54
I18F	3.16
I18E	2
I18P	2.18

Variant	protein stability index
M15P	2.62
M15G	2.48
M15F	2.54
M15Y	1.72
M15K	2.58
M15A	2.27
M15D	2.89
M15C	2.86
M15R	3.16
M15S	1.33
M15V	1.88
M15I	3.37
M15E	2.61
M15N	1.32
M15H	2.17
M15Q	3.41
M15W	2.5
M15L	1.25
V14E	2.48
V14S	2.61
V14A	2.06
V14P	1.82
V14I	1.86
V14F	2.3
V14H	2.85
V14K	3.08

Variant	protein stability index
V14L	3.47
V14D	2.59
V14N	3.15
V14T	2.07
V14Y	3.2
V14G	1.9
V14R	2.82
V14M	1.61
V14Q	2.46
V14C	2.86
F16S	1.82
F16K	4.35
F16N	2.6
F16P	1.96
F16M	2.98
F16H	2.28
F16T	2.41
F16Y	1.88
F16L	3.69
F16C	1.79
F16W	3.32
F16G	2.71
F16V	2.07
F16A	2.21
F16I	1.57
F16E	3.1

Variant	protein stability index
F16Q	4.27
F16R	3.37
F12Y	1.89
F17Y	2.37
F17C	2.07
F17K	2.06
F17E	2.32
F17I	2.44
F17H	3.23
F17N	1.56
F17S	2.03
F17M	1.84
F17Q	1.98
F17R	2.98
F17V	2.44
F17T	2.4
F17D	3.23
F17W	1.91
F17G	2.44
F17A	1.79
F21A	2.11
F21D	3.21
F21S	2.01
F21N	2.78
F21M	2.54
F21I	3.32

Variant	protein stability index
F21H	2.98
F21G	2.08
F21Y	3.96
F21Q	1.38
F21R	2.16
F21T	2.88
F21C	3.17
F21K	2.1
F21L	1.94
F21W	2.46
A13S	1.75
A13C	2.25
A13N	2.11
A13L	2.63
A13Q	2.25
A13Y	2.65
A13P	1.65
A13H	2.15
A13E	2.82
A13G	2.06
A13I	1.52
A13R	3.17
A13F	2.92
A13D	1.84
A13K	3.14
A22K	1.67

Variant	protein stability index
A22Y	2.58
A22R	1.95
A22I	1.91
A22N	2.92
A22F	1.98
A22P	4.08
A22Q	2.21
A22S	3.22
A22G	4.34
A22L	2.14
A22W	2.69
A22C	4.15
A22V	1.42
A22M	1.48
A22H	2.35
A22E	2.82
A22T	1.83
Y23I	1.51
Y23E	2.56
Y23S	2.47
Y23C	3.45
Y23F	1.57
Y23L	2.34
Y23T	2.98
Y23G	2.6
Y23P	2.51

Variant	protein stability index
Y23H	2.27
Y23N	2.61
Y23V	2.37
Y23A	1.7
Y23R	1.42
Y23K	2.31
Y23W	2.72
A24C	1.23
A24W	3.47
A24P	3.52
A24L	3.01
A24Q	2.42
A24K	2.06
A24I	1.68
A24Y	3.62
A24V	1.63
A24F	2.65
A24D	2.9
A24N	2.33
A24R	1.45
A24M	1.92

Variants of: B2
Assay: as above
Details: c terminus: a fixed tail appended

Variant	protein stability index
I5Y	2.56
I5Q	3.02
I5E	3.23
I5S	3.64
I5A	2.47
I5H	3.14
I5L	2.8
I5N	3.07
I5K	3.55
I5V	2.27
I5P	3.31
I5T	3.2
I5D	2.61
I5W	4.27
I5R	2.13
I5F	2.91
I5C	2.8
I5M	2.4
W4I	1.99
W4P	2.73
W4A	1.55
W4H	3

Variant	protein stability index
W4R	3.35
W4K	2.72
W4F	2.91
W4Y	3.95
W4V	3
W4G	2.06
W4D	2.64
W4C	3.11
W4S	3.31
W4M	2.59
W4N	2.4
W4Q	2.62
W4L	1.6
W4T	2.88
K7E	2.84
K7T	2.16
K7V	2.61
K7D	2.54
K7A	4.36
K7S	2.95
K7Y	2.9
K7M	2.73

Variant	protein stability index
K7N	2.32
K7P	3.02
K7H	2.76
K7Q	2.47
K7F	2.97
K7C	2.73
K7I	2.71
K7R	4.2
K7W	2.95
K7G	3.14
K7L	2.55
S3F	1.95
S3K	2.5
S3Y	3.59
S3L	2.9
S3C	3.41
S3I	2.78
S3V	2.53
S3W	3.13
S3Q	3.18
S3D	2.66
S3R	2.59

Variant	protein stability index
S3N	2.48
S3T	4.59
S3M	3.38
S3H	2.64
S3P	2.4
S3A	3.59
S3E	3.25
N8I	2.73
N8A	2.9
N8C	2.24
N8G	2.72
N8D	3.07
N8H	1.79
N8E	3.74
N1Y	2.79
N1A	2.72
N1Q	2.11
N1I	2.27
N1G	2.73
N1K	3.25
N1S	2.39
N1D	2.27

Variant	protein stability index
N1L	2.47
N1E	4.19
N1V	3.04
N1F	3.27
N1T	2.58
N1M	2.72
N1R	2.71
N1H	3.28
N1W	2.36
N2H	2.3
N2R	2.93
N2E	3.2
N2S	2.48
N2V	2.46
N2D	1.88
N2P	2.24
N2G	3.56
N2I	2.32
N2M	3.25
N2C	2.89
N2T	2.14
N2L	2.46

Variant	protein stability index
N2F	3.5
N2Y	3.58
N2Q	2.59
N2W	2.65
R6E	1.89
R6P	2.75
R6F	3.74
R6A	2.27
R6S	2.97
R6W	3.13
R6V	2.73
R6D	3.82
R6I	2.66
R6M	2.76
R6Y	3.78
R6N	3.63
R6H	3.75
R6C	3.31
R6L	2.03
R6K	3.09
R6G	2.76
